# T1: Q2L, synthetic peptide Ac-LATLSHCIELMVKR-NH2 (L-amino acids)
# T1 chain: LATLSHCIELMVKR
# B1: Recombinant FLAG-tagged human GPBP (expressed in yeast, FLAG-affinity purified) (protein)
# chain: MSDNQSWNSSGSEEDPETESGPPVERCGVLSKWTNYIHGWQDRWVVLKNNALSYYKSEDETEYGCRGSICLSKAVITPHDFDECRFDISVNDSVWYLRAQDPDHRQQWIDAIEQHKTESGYGSESSLRRHGSMVSLVSGASGYSATSTSSFKKGHSLREKLAEMETFRDILCRQVDTLQKYFDACADAVSKDELQRDKVVEDDEDDFPTTRSDGDFLHSTNGNKEKLFPHVTPKGINGIDFKGEAITFKATTAGILATLSHCIELMVKREDSWQKRLDKETEKKRRTEEAYKNAMTELKKKSHFGGPDYEEGPNSLINEEEFFDAVEAALDRQDKIEEQSQSEKVRLHWPTSLPSGDAFSSVGTHRFVQKPYSRSSSMSSIDLVSASDDVHRFSSQVEEMVQNHMTYSLQDVGGDANWQLVVEEGEMKVYRREVEENGIVLDPLKATHAVKGVTGHEVCNYFWNVDVRNDWETTIENFHVVETLADNAIIIYQTHKRVWPASQRDVLYLSVIRKIPALTENDPETWIVCNFSVDHDSAPLNNRCVRAKINVAMICQTLVSPPEGNQEISRDNILCKITYVANVNPGGWAPASVLRAVAKREYPKFLKRFTSYVQEKTAGKPILF
# Molecular target: T1, Q2L, synthetic peptide …
protein,measurement,value
B1,GPBP autophosphorylation in vitro,efficiently inhibited GPBP autophosphorylation
